Experiment: soluble on expression in E. coli; label from the status in PepcDB or PDB records

**Q.** Which “soluble on expression in E. coli” value does the source give for “MSLDIILDQPEQMLFALLRSALNSTKPVSEILFTDISPALWQACYRLACTQGVMALAWDGIQTLPACLQPPKALKLNWAMAVENYEKRYLRYCHTIAELSAFYKTHGITTVQLKGVGLSTYYPIPSHREGGDIDIFTYSADHSRKSDAEANRLADRLMEEKGIEVDFEHSEKHSMFYYKGIPIENHKTFINSETYRIAVKMDKLLQKLLQPVSAELDGKCSILIPSSTFNTVFLAFHAAQHYARGLALHHLCDWACLLNRYDLHIPEEVTDIRFRNMILAMTRLCNDYLGTSVPVYGGEELAEEILREIIRPPYTMSVPAKNKWGILVYKTKRMLHTHRACNSVLRISLCKWVGNSILLHLRSPHTIFQTEREGHHHHHH” here?
**A.** The value was “soluble”.

**Q.** Which “soluble on expression in E. coli” value does the source give for “MRPKVGVLLKMKREALEELKKYADVEIILYPSGEELKGVIGRFDGIIVSPTTKITREVLENAERLKVISCHSAGYDNIDLEEATKRGIYVTKVSGLLSEAVAEFTVGLIINLMRKIHYADKFIRRGEWESHAKIWTGFKRIESLYGKKVGILGMGAIGKAIARRLIPFGVKLYYWSRHRKVNVEKELKARYMDIDELLEKSDIVILALPLTRDTYHIINEERVKKLEGKYLVNIGRGALVDEKAVTEAIKQGKLKGYATDVFEKEPVREHELFKYEWETVLTPHYAGLALEAQEDVGFRAVENLLKVLRGEVPEDLVNKEVLEVRPIENVKML” here?
**A.** Its value is “soluble”.

**Q.** With “MAHHHHHHMSAGDTPVSLFLQACNQEGVKTPNPKLVEFFQSHETFDSILEIDLSNNYIGNRGLLAVLGVIEHLSCFRCLNAMDQKLYNSDFSEEAVKGNAVIDRIVEVFKVHPTANSLNLSNNPISNYAGRKLLSLAQVNRRMCLIEVSDTRIDFDLRNKIAKQCEENTRNMWDAEQDENANSCAVFGENLEWVPTQATADLTSLGAGRARRQTVRVEGIDPEAAKNYVPPVHEKSQEDTDMICKLLSHNVLFGFLGSKDILTVAGAMYREEFVKDERIIEFGQTHCDKLYVIQSGEADVIKEGQKVFVKTEGTAVGELELLYDTPAVATVKVSTEVLVAWVLDRETYRNLVMGSCIRRRETYMSMLAKVPFLQSLDAYERMQIADALTSDEFAAGDYIIHYDEEGEWLYIIIEGTVEVIGRDAAGNKTKVCEFHSGDHIGELEFLNKHRTVADIVAVTGVTTAKLNRRHFEMCMGPVMDVLKRNSTSAKYDYYQQVLQQQQQGAPAAVQ” as the sequence, how does the “soluble on expression in E. coli” value read?
**A.** Its value is “soluble”.

**Q.** With “NENFRWKTAVNMSMNRNKVVSLHKDYKSFRYGSEGFSMAYDMWVKEGGKLGDIYGNGFERDENGKIKLNETGNPIKVTGNNTLLGNANPDALLGWSNTFTYKGFTLYFLIDARIGGDVMSLTQAHLDAMGVSKESGESRDRGYVEYEGIQFKDVPNFYGTVGGRNGISEYYMYDATNVRLRELTLGYSFPETLLAKTKFIKGLDLTLVARNLFFLYKDAPFDPDATLSVGNTLQGVDVFGMPTTRNIGFNVKFTF” as the sequence, how does the “soluble on expression in E. coli” value read?
**A.** The value was “not soluble”.

**Q.** With “MSDFLKDCFQKIGWEKDHVSFGDLPLFLKAMAYRFPFENRAVLAKENYKITKEELWRRLLKDQHGGLCYDLNGFLYFVLREAGFHVKLIRGTVYAGDQEGWALEGTHAAVWLSAENGDYLVDIGFGINLALQPIPLSGETVQSPVGSFRIKKEETEKGSYVLLMDKGEGWQIGYAFTLEESDLGDLDNMKDIIHSHEKSPFNKSLLASKLTPSGRMVMSERHFTIYENGGNIQKSDIGPSGFEEKLNTH” as the sequence, how does the “soluble on expression in E. coli” value read?
**A.** The value was “not soluble”.

**Q.** With “MPKEILMPELAESVVEGEILKWLVEEGDYLKKDQPFVEVMTDKVTVELPSPYEGVLLKKLAKEGEVVKVHAPIALIAEPGEAVEGVKEAPPVQAVEERSIVEPGLPAKEEKEDLSLFKPDPTQVAVKNPFLSGEKPQEGARPGRVLAVPAARKLARELGIPIEEVPGSGPLGRVRVEDVRAYAERRKAPPERPEEGPQVLPAGFPPPPKYAPPKGYEHLEERVPLRGIRRTIAQGLWQSHLYTVRTLNVDEADLTELVRLRERLKPQAEAQGVKLTYLPFIVKAVVRALKKFPMLNTSLDEERQEIVYKRYYHIGLAVATERGLIVPVVRDADRKSVLELAQEIAELSQKAREGRLAPEEVTGSTFTITNIGSVGATLSFPIIHLPDAAILGVHSIRKRPWVMPDGSIRPRDIMFLSLSFDHRLVDGAEAAMFTREVIRLLENPDLLLLEM” as the sequence, how does the “soluble on expression in E. coli” value read?
**A.** The value was “soluble”.

**Q.** Which “soluble on expression in E. coli” value does the source give for “GSHMASMTGGQQMGRGSGSHMASMTGGQQMGRGSRVGEQSQAGDPGLVSAYGPGLEGGTTGVSSEFIVNTLNAGSGALSVTIDGPSKVQLDCRECPEGHVVTYTPMAPGNYLIAIKYGGPQHIVGSPFKAKVTGPRLS” here?
**A.** Its value is “soluble”.

**Q.** With “MSLKIYESYEDLPKLKLPYGNEVFISDSTIRDGSQMPGIVLSREHKIQIYEYLHEIGIEKLEAFVFNKRDRDAVDLMFDKGYEFPEITGWARSSRADIDKILEVDGIEETGILMSVSDTHIHSKMRLSGREEAEERYLDALQYAVDHGLKTRAHLEDMTRADNYGFVFPLVKKIMEIDPDCIIRVCDTVGYGMPFMNIDEPYGIPKIIQHLKKEIGVKNIETHIHDDYGFGSASSIAGFWHGANWTSVTFLGIGERAGNSEMEKILLFLADRVEGFDKYNLEPVTRFAEFMEKELGLRVPRNKAVVGKNIFAHESGIHAAGVLKNPFNYEPYPPELVGGTRLLLIGDSSGLEVIRYKVQETLNNLLDVETVVEKDDRRLLKIQKEIQKLYDKEERVSCISDEELLAYVEKYFLYQPISDPARTGRGKLKNRGKIQEPVEEKEGHHHHHH” as the sequence, how does the “soluble on expression in E. coli” value read?
**A.** The value was “not soluble”.

**Q.** With “MKQWADDENLPMERYKNYQMIVPAFIIKDILDGKIPETFEDSKNIKMIEASWGEESYTKGHIPTSVHVNTDIIEPPPTWMLDNDDNLTKFALDYGLTKDDTVIVSSSTPMASYRLAVILRYIGVKDVRVLNGGTNSWLSAGYELEFISNPKLEHHHHHH” as the sequence, how does the “soluble on expression in E. coli” value read?
**A.** The value was “not soluble”.

**Q.** Which “soluble on expression in E. coli” value does the source give for “MEKFGKPLEENGKEATATVIGLGKLGSEELNYYSDVDLMFIHSTDKGKAGNLSLNDFFQRLFQKVVKLLNAQTPEGVPYFVDLDLRPFGKSGPLSMPLRSAELYYESYGRIWERFALLRARYCAGDEELAQKFMKEVVRPFVFGPADYKLVEEIRLMKKRIEAEAKKKFIKGYNVKTGEGGIREVEFSVQSLVILLGSKTPILRESNTYRAIYKLMQKGVFSSEEAQKLEESYTFLRKLEHRIQLRECLQTQVLKESDKETFAKFLGFESKEEFEEKLKETRAFVKSVFSQILPEREEEELDELQEAVIMEDEESGTQILKQKGFKSTRQIFTLLSEPLYGSMNVHFTEKEKKLYIKLIPKLVNLALSSQNPDQSIKNFFKFFFNPTGRRVILSEHKREEFLEKLFTVFSVSDYLSHLVARNPDLVEDALTLYRDFPKFEDFKREFEKYRETLNLSPENLYRRFKTVWEVRIGLVYLLKEEDRYEKLKKLYISLSTLADFILSNLWKDITLEENTALLYALGKLGSRELNFNSDLDLVFAVKSLEEKEKVHEKAKELVRFLTAHTTEGYLYSVDFRLRPMGSKGELVPTFDFYKKYFEKEARTWERLAWTRARYITGNEEFKEEFERLIENFLFEKPWGEKEKREVYEMRMKLQSVAKRGRGVVDLKLGEGGIVDGEFLVQYLLIKEKIRETSMIRGFEVLMEKYPRLKEAYDSFMFLRLVETHLRLSKERGTSVLSEQDIPKVALSLGMKPEELKESIKEKMKKMREVFNEFLAQ” here?
**A.** Its value is “not soluble”.

**Q.** Which “soluble on expression in E. coli” value does the source give for “MDEVGVASEHLPDLRDRTGHAVNLAVWGDHGPVLVRWDYGAHALPITIRVGATMPLLTSAIGRVYLAHLPATMTTSIVETELETLGTNAPSKSDVARLRATVLEQGVATISGEVIPGVMSVAAPVFPAGQSIPLAVAVALPSSLGDTATVAEVTLELLRTTKAISEDYGSVGGAAGGPIA” here?
**A.** Its value is “not soluble”.

**Q.** Which “soluble on expression in E. coli” value does the source give for “MIMHIPKSTYYHKWFIGATLVVPVLPLAAQTSPNLVFIMADQYRGDALGCLGKEPVKTPCLDHLASEGVLFTNAVSSYPVSSPARAMLMTGMYPLHNKVTGNCNSQTAPYGVELPQEARCWSDVLKDMNYRTGYIGKWHLDSPYKPYVDTYNNRGKVAWNEWCPPERRHGFEYWTAYGTYDYHLKPMYWDTTAPRDSFYYVNQWGPAYEADKAIEYIQTQKENKQPFALVVSMNPPHTGYELVPDKYKALYKDIDVEALCAHRPDIPAKGTEMGNYFRNNIRNYYACITGVDEQVGRIIETLKSNGLFENTIIVFTSDHGICMGAHNNAGKDIFYEEAMRIPMIISWPAKIKPRKDDHLMIAFADLYPSLLSLMGFRKEIPETVQTFDLSRHILGKSKKEVVQPYYYVQFDNHATGYRGLRTSTHTFAVHATNGKIDETVLFDRTKDPYQMDNIAGQSPRLVRQFNKQLKAWLLHTNDSFAHYLETVTK” here?
**A.** The value was “not soluble”.
